Data: paper PMC8160712

Target: Recombinant protein G from Escherichia coli (group G Streptococci) (UniProt P06654)
Test: total internal reflected imaging ellipsometry (TIRIE); protein G immobilised on EDC/NHS-activated MUA gold surface (100 μg/mL in the whole-process run); antibody flowed over for 20 min, rinsed with PBST; real-time grayscale signal

## Anti-CD9 antibody [MEM-61]
  TIRIE signal increase: 900 grayscale
  TIRIE signal increment with protein G: 640

## Anti-CD63 antibody [MEM-259]
  TIRIE signal increase: 900 grayscale
  TIRIE signal increment with protein G: 650
